{
  "source": "paper PMC6606709",
  "about": "“Granzyme A Stimulates pDCs to Promote Adaptive Immunity via Induction of Type I IFN” (Frontiers in Immunology, 2019)",
  "proteins": {"B1": {"name": "recombinant granzyme A (GzmA), mouse, residues 29-260, histidine-tagged (enzyme, UniProt P11032 29-260, looked up)", "chain": "IIGGDTVVPHSRPYMALLKLSSNTICAGALIEKNWVLTAAHCNVGKRSKFILGAHSINKEPEQQILTVKKAFPYPCYDEYTREGDLQLVRLKKKATVNRNVAILHLPKKGDDVKPGTRCRVAGWGRFGNKSAPSETLREVNITVIDRKICNDEKHYNFHPVIGLNMICAGDLRGGKDSCNGDSGSPLLCDGILRGITSFGGEKCGDRRWPGVYTFLSDKHLNWIKKIMKGSV", "notes": "mouse granzyme A, residues 29-260; also called recombinant GzmA"}},
  "target": "the molecule itself",
  "assay": "SDS-PAGE under reduced and non-reduced conditions; reduced and non-reduced GzmA run on 10-12 % SDS-PAGE, Coomassie Brilliant Blue stain",
  "data": [
    {"protein": "B1", "values": [
      {"measurement": "stoichiometry N", "value": 2}
    ]}
  ]
}
